According to patent publication US20220054648A1:

Assays:
human Trop-2 (human) [1] = molecular target: human Trop-2 (human) (UniProt P09758); experiment: cell binding assay on NCI-N87 cells, anti-mouse-HRP secondary, luminescence
human Trop-2 (human) [2] = molecular target: human Trop-2 (human) (UniProt P09758); experiment: cell binding assay (cell line not given)

Chain of human Trop-2 (human) (P09758 27-323): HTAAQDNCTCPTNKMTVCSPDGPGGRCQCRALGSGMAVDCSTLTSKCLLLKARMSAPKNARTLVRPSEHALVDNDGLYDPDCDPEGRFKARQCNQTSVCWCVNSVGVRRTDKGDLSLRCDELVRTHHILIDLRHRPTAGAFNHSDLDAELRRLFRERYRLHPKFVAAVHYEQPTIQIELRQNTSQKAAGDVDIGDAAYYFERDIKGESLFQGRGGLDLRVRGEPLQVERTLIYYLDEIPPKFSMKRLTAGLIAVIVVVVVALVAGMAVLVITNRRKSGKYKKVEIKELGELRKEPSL

162-46.2 murine monoclonal antibody against human Trop-2
BMax (relative luminescent units) (human Trop-2 (human) [1]): 8470

MAB650 murine monoclonal antibody against human Trop-2 (R&D Systems)
BMax (relative luminescent units) (human Trop-2 (human) [1]): 6020

hRS7-CL2-SN-38 (anti-Trop-2 ADC, hRS7 IgG conjugated to CL2-SN-38) (antibody)
Kd (human Trop-2 (human) [2]): 1.2 nM

hRS7-CL2A-SN-38 (anti-Trop-2 ADC, hRS7 IgG conjugated to CL2A-SN-38) (antibody)
Kd (human Trop-2 (human) [2]): 1.2 nM
